Assay [1] addresses polysialylated NCAM. Kind of assay: SPR (Biacore) equilibrium binding to NCAM. Set-up: species or system chicken. The following applies: antibody on Protein A sensor chip; NCAM 0.25-250 nM; Hill slope analysis in Prism. As for the experimental part:
FIGS. 5A-5D depict binding affinity analysis of mo735 and ch735 antibodies. Binding kinetics for the mo735 and ch735 antibodies were monitored using Biacore. Commercial mo735 or recombinant purified ch735 was immobilized at low concentrations on a Biacore Protein A sensor chip and the response to different concentrations of NCAM (ranging from 0.25-250 nM) was compared with an empty flow cell. FIGS. 5A-5B depicts representative sensorgram data for mo735 (FIG. 5A) and ch735 (FIG. 5B).
Equilibrium binding-affinity measurements were made by SPR analysis on a Biacore 3000 system. Antibodies mo735 and ch735 were bound to the surface of a Protein A sensor chip with a target level of 1700 response units (RUs). Serial dilutions of the antigen, chicken NCAM, prepared in 10 mM HEPES, pH 7.4, 150 mM NaCl, 3 mM EDTA, 0.005% polysorbate-20 (HBS-EP buffer, GE Healthcare) at concentrations ranging from 0.25 to 250 nM were injected over the chip using the same buffer at a flow rate of 20 μl/min (10 min injection time, 2 min stabilization time, 20 min dissociation). The surface of the chip was regenerated between the injections of each serial dilution with 10 mM glycine, pH 1.5 (30 sec injection time, 3 min stabilization time). Kinetic parameters were determined by fitting the maximum response values for each concentration using the Hill slope non-linear regression analysis in Prism software.

Assay [2] concerns chicken brain-derived polysialylated neural cell adhesion molecule (NCAM). Kind of assay: ELISA with immobilized NCAM. In kind it is binding. The method, then: (§1) FIGS. 2A-2D depict binding specificity and affinity of the ch735 antibody. […] ELISA signals (Abs370) were obtained with anti-human IgG secondary antibodies. […] Antibodies were assayed at 1 μg/mL and detected with anti-human IgG secondary antibodies. […] Antibodies were assayed at 10 μg/mL and detected with anti-mouse IgG secondary antibodies.
(§2) FIGS. 3A-3D depict binding specificity and affinity of mo735 antibody. […] ELISA signals (Abs370) were obtained with anti-mouse IgG secondary antibodies. […] Antibodies were assayed at 1 μg/mL and detected with anti-mouse IgG secondary antibodies. […] Antibodies were assayed at 10 μg/mL and detected with anti-mouse IgG secondary antibodies.
Costar 96-well ELISA plates (Corning) were coated overnight at 4° C. with 50 μl of 1 μg/mL chicken brain NCAM (Millipore) or endoN-treated NCAM in PBS. Chicken NCAM (Millipore, AG265) was digested with 1.5 μg of endoN per 50 μg of NCAM overnight at 37° C. After blocking with 5% (w/v) milk in PBS for 1-3 h at room temperature or overnight at 4° C., ELISA plates were washed three times with wash buffer (PBST with 0.3% BSA) and incubated with serially diluted purified ch735, mo735 (Absolute Antibody), or ab5032 (Millipore) for 1 h at room temperature. Antibody samples were quantified with a Nanodrop. […]
On the technique in general: An ELISA detects its analyte on a solid surface through an enzyme-linked reagent.

Assay [3] deals with polySia expressed on the surface of different cancer cell lines. Kind of assay: Flow cytometric analysis of antibody binding to cancer cell lines. In kind it is cell-based, human. An excerpt:
FIGS. 6A-6D depict immunostaining of antibody ch735 to polySia-expressing cancer cells. […] Data are the geometric mean fluorescence intensity (MFI), with the values reported as the average of three replicates and the error represented as the standard deviation of the mean. […] Cells were stained with ch735, wheat germ agglutinin (WGA) to stain the cell membrane, and Hoescht to stain nuclei. Scale bars, 10 μm. […] Scale bars, 200 μm.
FIGS. 7A-7B depict binding of antibody ch735 and mo735 to polySia-expressing cancer cells. Representative fluorescence histograms for ch735 (FIG. 7A) and mo735 (FIG. 7B) binding to a panel of cancer cell lines measured by flow cytometry are shown. Histograms represent antibody binding to untreated cells, antibody binding to endoN-treated cells, and anti-human or anti-mouse secondary only control, respectively.
FIGS. 9A-9B depict binding of antibody mo735 to polySia-expressing cancer cells. […] Data are the geometric mean fluorescence intensity (MFI), with the values reported as the average of three replicates and the error represented as the standard deviation of the mean. […] Cells were stained with ch735, wheat germ agglutinin (WGA), and nuclei were stained with Hoescht. Scale bars, 10 μm.
Cancer cells were trypsinized and collected with media, followed by three washes in PBS. To remove polySia, cells were treated with endoN at 3 μg/mL in PBS for 1 h at room temperature. The cells are resuspended in 4% paraformaldehyde (PFA), fixed at room temperature with constant agitation for 10 min, and then washed two times with PBS, and two times with 0.5% BSA in PBS. The cells were collected and resuspended to 1 million cells/100 μL and pipetted into a round bottom 96-well plate. The cells were pelleted in the 96-well plate and resuspended in 0.5% BSA in PBS containing mo735 or ch735 (5 μg/mL) and incubated for 30 min at room temperature with constant agitation. Cells were washed three times with 0.5% BSA in PBS and resuspended in anti-mouse IgG-Alexa-Fluor 488 (AF488) secondary or anti-human IgG-AF488 secondary (ThermoFisher Scientific) at a 1:200 dilution for 30 min at room temperature in the dark with constant agitation. Cells were washed three times, resuspended in 500 μL of 0.5% BSA in PBS, and analyzed on a BD FACSCalibur flow cytometer using Cell Quest Pro software (BD Biosciences).

The nature of assay [4]: CFG glycan microarray specificity profiling. In kind it is binding. The following applies: for glycan specificity from microarrays: CFG glycan array (v5.3 mo735, v5.4 ch735) and glycoprotein array. As for the experimental part:
as §1, §2
Specificity of mo735 and ch735 was determined using printed glycan arrays 5.3 and 5.4 at the CFG. Both antibodies were analyzed at 10 μg/mL with 5 μg/mL of anti-mouse or anti-human Alexa-Fluor 647 (AF647)-conjugated secondary, respectively. Specificity of mo735 (1 μg/mL) and ch735 (10 μg/mL) was also assessed on a custom glycoprotein array that contained ˜40-50 glycoproteins including chicken brain NCAM and endoN-treated chicken brain NCAM.

Setting [5] is: CFG microarray version 5.4, 10 μg/mL.

B1: mo735: well-known mouse-derived IgG2a monoclonal antibody 735 targeting polysialic acid (antibody, V domains shown)
VH: QIQLQQSGPELVRPGASVKISCKASGYTFTDYYIHWVKQRPGEGLEWIGWIYPGSGNTKYNEKFKGKATLTVDTSSSTAYMQLSSLTSEDSAVYFCARGGKFAMDYWGQGTSVTVSS
VL: DVVMTQTPLSLPVSLGDQASISCRSSQSLVHSNGNTYLYWYLQKPGQSPKPLIYRVSNRFSGVPDRFSGSGSGTDFTLKISRVEAEDLGVYFCFQGTHVPYTFGGGTRLEIK
On to B1, for which, in assay [1], binding was put at a Kd of 10.2 nM. Further, in assay [2], the “ELISA binding to NCAM” value was “specifically recognize polySia”. Further, in assay [3] (staining of each of the cell lines), the “polySia binding on panel of cell lines compared with ch735” value is on record as “Identical polySia binding results”. Further, the “glycan specificity from microarrays” value in assay [4] was “Nearly identical results”.

B2: ch735: chimeric human IgG1 polySia-specific mAb made by swapping variable regions of mouse mAb 735 (antibody, V domains shown)
VH: QIQLQQSGPELVRPGASVKISCKASGYTFTDYYIHWVKQRPGEGLEWIGWIYPGSGNTKYNEKFKGKATLTVDTSSSTAYMQLSSLTSEDSAVYFCARGGKFAMDYWGQGTSVTVSS
VL: DVVMTQTPLSLPVSLGDQASISCRSSQSLVHSNGNTYLYWYLQKPGQSPKPLIYRVSNRFSGVPDRFSGSGSGTDFTLKISRVEAEDLGVYFCFQGTHVPYTFGGGTRLEIK
Consider B2, for which binding in assay [1] was put at a Kd of 4.79 nM. For the same molecule, the “ELISA binding to NCAM” value in assay [2] is reported as “specifically recognize polySia”. In addition, the “surface binding by flow cytometry” value in assay [3] (A549 and MCF7 cells) is “No significant binding above background”; in assay [3] (NCI-H69, NCI-H82 and SH-SY5Y cells), “lower intensity”; in assay [3] (SKOV3 and K562 cells) it was “not recognized”; in assay [3] (SW2 cells) it was “bound most avidly”. Moreover, the “surface binding following endoN treatment” value in assay [3] (polySia-positive cell lines, endoN-treated) is recorded as “lack of surface binding”. Also, the “glycan specificity from microarrays” value in assay [4] is reported as “α2,8-linked sialic acid with a degree of polymerization (DP) of three or greater”. For the same molecule, the “glycan array binding to glycan Chart ID #224” value in assay [4] (setting [5]) is on record as “lesser but still significant level of binding above background”. For the same molecule, in assay [4] (setting [5]), the “glycan array binding to glycans #225 and 226” value was “not”. Besides, in assay [4] (setting [5]), the “glycan array binding to tetra-sialic acid glycan Chart ID #223” value is on record as “strong preference”.

For the origin of these results see patent US20200277405A1, “COMPOSITION FOR ANTIBODY-DRUG CONJUGATE DIRECTED AGAINST TUMOR-CELL ASSOCIATED POLYSIALIC ACID” (Cornell University, priority 2019, published 2020).
